Experimental findings from patent publication US8383797B2, “Luciferase gene optimized for use in imaging of intracellular luminescence” (Toyo Boseki Kabushiki Kaisha, priority 2005, dated 2013) are described below.

In series [1] the test system is HeLa S3 cells. The series is described as follows: Analysis of AP1 response sequence in living cells, 96-well plate. The format is cell-based. The settings on record: HeLa S3, TPA or EGF stimulation, 0.2 mM D-luciferin. Here is the method:
HeLa S3 cells were seeded at 3×10^4 cells (100 μL) per well in a 96-well white opaque plate, and cultured in Dulbecco's Modified Eagle's Medium DMEM (Nissui Pharmaceutical Co., Ltd.) containing 10% FCS. The following day, 0.2 μg per well of the plasmid pELuc-AP1 or pGL3-AP1 (diluted with 25 μL of DMEM containing no FCS) and 0.5 μL of Lipofectamine 2000 transfection reagent (Invitrogen, diluted with 25 μL of DMEM)) were mixed and added to the cells in the medium replaced with 100 μL of DMEM+0.1% FCS, which was incubated for 24 hours to introduce the gene. The following day, the medium was either not replaced, or replaced with DMEM+0.1% FCS (further containing 0.2 mM D-luciferin) containing 0.01 μM TPA (Sigma), 0.1 μM TPA, 1 μM TPA or 10 ng/mL of EGF, and the cells were incubated for 5 hours. Subsequently, the luminescence was measured using a plate reader 1420 ARVOMX (Perkin Elmer). In the graph for measurement values, readout values were plotted, and in the graph for induction ratios, an expression induction ratio at each concentration calculated when the value in an additive-free condition equaled 1 was plotted.

The test system of series [2] is cultured fibroblast NIH3T3 cells. The series can be described thus: Real-time monitoring of luminescence under control of the Bmal1 promoter in living cells. The format is cell-based. The settings on record: PEST-fused luciferase, NIH3T3, 200 μM D-luciferin. The procedure:
Short lifespan-type luciferase was made by ligating a PEST sequence (SEQ ID NO: 7) of murine ornithine decarboxylase to a wild-type (SEQ ID NO: 1) and improved-type (SEQ ID NO: 2) click beetle luciferase cDNA. Vectors in which these had been inserted downstream of a murine circadian clock gene Bmal1 promoter (GenBank Accession No. AB064982) were made. Subsequently, 1 μg of each vector was introduced into cultured fibroblast NIH3T3 cells seeded in a 35 mm culture dish by a lipofection method (LipofectAMINE PLUS, Invitrogen), and the cells were cultured at 37° C. for 24 hours and treated with a DMEM medium containing 100 nM dexamethasone for 2 hours. The medium was replaced with a DMEM medium containing 200 μM D-luciferin and 10% (w/v) bovine serum, and then one minute of luminescence was measured every 15 minutes for 5 days in real time using a real-time gene expression measurement apparatus (AB2500 supplied from ATTO Corporation) (FIG. 1A).

Series [3] can be described thus: pH dependency of luminescence of recombinant luciferase enzyme preparations. It is filed as biochemical. The settings on record: pH 6.6 to 8.8, relative activity with pH 8.0 set as 100. The procedure:
A click beetle-derived luciferase enzyme preparation was acquired as a recombinant body by inserting the luciferase gene PtGRm in the vector pELuc-test (Toyobo Co., Ltd.) into the expression vector for Escherichia coli and expressing it in Escherichia coli. As a firefly luciferase enzyme preparation, QuantiLum Recombinant Luciferase (Promega, described as fLuc in the figure) was used. For each enzyme preparation, a luminescence reagent containing 15 mM MgSO4, 6 mM EDTA, 4 mM Co-enzyme A, 1.2 mM D-luciferin, 6 mM DTT, 0.2% Nonidet P40, 2 mM ATP and 2 μg/mL of the enzyme preparation was prepared. Then, 100 μL of ATP solution at […], 0.2 mM or 1 mM and 100 μL of 100 mM Hepes-NaOH pH 6.6 to 8.8 were mixed, and the luminescence was measured.
A graph of luminescence measurement values and a graph obtained by plotting the relative activity at each pH when the measurement value at pH 8.0 was set as 100 in each luciferase are shown in FIG. 12.

Series [4] has as its system cultured fibroblast NIH3T3 cells. The series can be described thus: Bioluminescence imaging of cells expressing FLAG-tagged luciferase. It is filed as cell-based. Conditions: CMV promoter, FLAG tag, NIH3T3, 200 μM D-luciferin, CCD camera, three minutes. Here is the method: A FLAG tag sequence (MDYDDDDK; SEQ ID NO: 15) was ligated to the N terminus of the firefly luciferase cDNA (Luc(+), supplied from Promega) derived from Photinus pyralis produced in North America and the improved-type click beetle luciferase cDNA (SEQ ID NO: 2). The expression vector (2 μg) obtained by inserting one of them downstream of the CMV promoter was introduced in the cultured fibroblast NIH3T3 cells by the lipofection method, and the cells were cultured at 37° C. for 24 hours. Subsequently, the medium was replaced with a DMEM medium containing 200 μM D-luciferin and 10% (w/v) bovine serum, and three minutes of bioluminescence was measured using a CCD camera (Cellgraph supplied from ATTO Corporation) cooled to −60° C.

The test system is the same in series [5]. The series can be described thus: Transient assay of Bmal1 promoter activity, luminescence of cell extract. Conditions: PEST-fused luciferase, NIH3T3, cell lysate, luminometer. The format is cell-based. The procedure: The aforementioned reporter vector (200 ng) was introduced into the cultured fibroblast NIH3T3 cells seeded in a 24-well plate by the lipofection method, the cells were cultured at 37° C. for 24 hours, and disrupted with 300 μL of a cell lysis agent (cultured cell lysis agent for PicaGene Dual Seapansy supplied from Toyo Ink MFG Co., Ltd.). A luminescent substrate solution (50 μL) (PicaGene luminescence reagent II) was added to a cell extract solution (50 μL), and 20 seconds of luminescence was measured using a luminometer (AB2250 supplied from ATTO Corporation) (FIG. 1B).

The test system of series [6] is cultured fibroblast rat1 cells. The series can be described thus: Real-time monitoring of luminescence under control of the Bmal1 promoter in living cells. The format is cell-based. The settings on record: PEST-fused luciferase, luminescence amount integrated within 24 hours. Here is the method:
Short lifespan-type luciferase was made by ligating the PEST sequence (SEQ ID NO: 7) of murine ornithine decarboxylase to firefly luciferase cDNA (Luc(+), supplied from Promega) derived from Photinus pyralis produced in North America and improved-type click beetle luciferase cDNA (SEQ ID NO: 2). Vectors in which these had been inserted downstream of a murine circadian clock gene Bmal1 promoter (GenBank Accession No. AB064982) were made. Subsequently, 1 μg of each vector was introduced into cultured fibroblast rat1 cells seeded in a 35 mm culture dish by the lipofection method (LipofectAMINE PLUS), and the cells were cultured at 37° C. for 24 hours and treated with the DMEM medium containing 100 nM dexamethasone for 2 hours. The medium was replaced with a DMEM medium containing 200 μM D-luciferin and 10% (w/v) bovine serum, and then one minute of luminescence was measured every 15 minutes for 5 days using the real-time gene expression measurement apparatus (AB2500 supplied from ATTO Corporation) (FIG. 2).

B1: improved-type click beetle luciferase: Pyrearinus termitilluminans click beetle luciferase expressed from the modified gene of SEQ ID NO: 2 (protein)
chain: MEREKNVVYGPEPKHPLGNFTAGEMLYNALHKHSHIPQAILDVMGNESLSYQEFFDTTVKLGQSLQNCGYKMNDVVSICAENNKRFFIPIISAWYIGMVVAPVNEDYIPDELCKVTGISKPILVFTTRKILPKVLEVKDRTNYIKRIIILDSEENLLGCESLHNFMSRYSDNNLQTFKPLHYDPVDQVAAILCSSGTTGLPKGVMQTHRNICVRLTHASDPRVGTQLIPGVSVLAYLPFFHAFGFSINLGYFMVGLRVVMLRRFNQEVFLKAIQDYEVRSVINVPSTILFLSKSPLVDKYDLSTLAELCCGAAPLAKEVAEIAVKRLNLPGIRCGYGLTESTSANIHTLHNEFKSGSLGKVTPYMAAKIIDRNTGEALGPNQVGELCIWGPMVTKGYVNNPQATKEAIDDDGWLHSGDFGYYDEDEYFYIVDRYKELIKYKGYQVAPVELEEILLQHPGIRDVAVVGIPDIEAGELPAGFVVKQPGAQLTAKEVYDFLAQRVSHSKYLRGGVRFVDSIPRNVTGKISRKELREALMEKASKL
modifications: Pyrearinus termitilluminans
Consider B1, for which the “luminescence intensity relative to conventional luciferase” value in series [1] came to 15 times. Further, the entries for the “luminescence intensity relative to wild-type luciferase” value in series [2] and in series [5] were “about 100 times” and “about 150 times”, respectively. The “variation of luminescence activity due to pH compared with firefly luciferase” value in series [3] is recorded as “variation due to the pH values is smaller”. Further, the “bioluminescence signal of cells compared with firefly luciferase” value in series [4] was “clearly emit strong signals”. For the same molecule, the “luminescence intensity relative to firefly luciferase derived from Photinus pyralis” value in series [6] is listed as no less than 15 times.
